Measured values: publication PMC6727763 (Molecular Biology of the Cell, 2019)

Biological target: T1, αE-catenin construct containing the M123 domain (UniProt P26231 1-906)
T1 sequence (looked up): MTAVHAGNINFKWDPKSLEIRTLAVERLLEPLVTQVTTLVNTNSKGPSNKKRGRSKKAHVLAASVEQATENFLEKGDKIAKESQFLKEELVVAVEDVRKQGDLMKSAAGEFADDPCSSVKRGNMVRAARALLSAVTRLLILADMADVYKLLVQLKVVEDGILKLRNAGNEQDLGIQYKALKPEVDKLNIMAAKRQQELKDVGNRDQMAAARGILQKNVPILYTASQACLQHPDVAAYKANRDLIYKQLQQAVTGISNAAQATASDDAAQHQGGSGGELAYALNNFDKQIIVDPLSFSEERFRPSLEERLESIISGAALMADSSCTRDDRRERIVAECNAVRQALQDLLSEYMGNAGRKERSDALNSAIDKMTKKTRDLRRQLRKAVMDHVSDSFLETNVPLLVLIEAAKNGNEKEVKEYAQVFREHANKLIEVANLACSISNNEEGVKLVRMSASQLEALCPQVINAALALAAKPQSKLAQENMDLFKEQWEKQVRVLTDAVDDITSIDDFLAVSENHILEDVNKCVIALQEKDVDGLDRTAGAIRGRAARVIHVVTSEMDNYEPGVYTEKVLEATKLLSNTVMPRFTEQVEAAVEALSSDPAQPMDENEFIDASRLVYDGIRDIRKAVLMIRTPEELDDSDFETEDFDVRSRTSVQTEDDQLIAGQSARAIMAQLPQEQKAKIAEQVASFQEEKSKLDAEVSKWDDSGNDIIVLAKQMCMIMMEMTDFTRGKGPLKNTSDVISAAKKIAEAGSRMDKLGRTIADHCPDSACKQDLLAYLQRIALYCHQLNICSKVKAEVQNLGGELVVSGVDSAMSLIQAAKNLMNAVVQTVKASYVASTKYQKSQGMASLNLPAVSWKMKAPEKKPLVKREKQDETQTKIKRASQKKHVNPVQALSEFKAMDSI
Assay: magnetic tweezers force-jumping assay

Kd: 2 nM
koff: 0.008 s⁻¹
kon: 4.8e+06 M⁻¹ s⁻¹
B1: vinculin head domain 1 (VD1) (domain or fragment)
chain: MPVFHTRTIESILEPVAQQISHLVIMHEEGEVDGKAIPDLTAPVSAVQAAVSNLVRVGKETVQTTEDQILKRDMPPAFIKVENACTKLVRAAQMLQADPYSVPARDYLIDGSRGILSGTSDLLLTFDEAEVRKIIRVCKGILEYLTVAEVVETMEDLVTYTKNLGPGMTKMAKMIDERQQELTHQEHRVMLVNSMNTVKELLPVLISAMKIFVTTKNTKSQGIEEALKNRNFTVEKMSAEINEIIRVLQLTSWDEDAW
